What was measured:
[1] = target: T1, mouse DLL3 (KACTUS, DLL-MM103) (mouse, UniProt O88516 33-490, limits assumed); test: SPR (Biacore 8K), antibody captured on Protein A chip
T1 construct: bought antigen of the Biacore assay; construct not described
T1 sequence (looked up): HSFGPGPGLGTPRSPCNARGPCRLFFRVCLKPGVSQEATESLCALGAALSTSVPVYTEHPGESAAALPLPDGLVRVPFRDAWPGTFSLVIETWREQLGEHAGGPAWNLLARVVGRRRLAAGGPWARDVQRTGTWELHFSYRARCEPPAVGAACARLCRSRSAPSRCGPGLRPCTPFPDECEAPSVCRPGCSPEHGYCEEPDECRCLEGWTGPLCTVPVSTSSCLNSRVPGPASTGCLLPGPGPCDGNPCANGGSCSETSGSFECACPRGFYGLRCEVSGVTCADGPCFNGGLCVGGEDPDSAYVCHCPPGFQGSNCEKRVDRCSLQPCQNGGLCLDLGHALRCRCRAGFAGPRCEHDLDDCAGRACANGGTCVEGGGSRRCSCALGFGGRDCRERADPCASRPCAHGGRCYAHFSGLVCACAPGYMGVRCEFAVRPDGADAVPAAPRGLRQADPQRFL
Text: Test antibodies were affinity-captured with a Protein A biosensor chip (Cat. #29127556, Cytiva) for 18 seconds, and then the antigens human DLL3 (ACRO, DLL3-H52H4), cynomolgus monkey DLL3 (KACTUS, DLL-RM103), and mouse DLL3 (KACTUS, DLL-MM103) were allowed to flow over the surface of the chip for 180 seconds, followed by 600 seconds of dissociation. Reaction signals were detected in real time using a Biacore 8K (Cytiva) instrument to obtain association and dissociation curves. After the dissociation in each experimental cycle, the biosensor chip was washed and regenerated with a 10 mM glycine-hydrochloric acid solution (pH 1.5) (Cat. #BR-1003-54, Cytiva). A 1:1 model was fit to the data. The results are shown in Table 12-1, Table 12-2, and Table 12-3.

[2] = target: T2, Human DLL3 full-length protein on cells (human, UniProt Q9NYJ7 27-618); test: FACS on DLL3/H82 cells
T2 construct: H1184 and DMS53 express DLL3 themselves; The cell line is named under assay; also called H1184 cells; DLL3/H82
T2 sequence: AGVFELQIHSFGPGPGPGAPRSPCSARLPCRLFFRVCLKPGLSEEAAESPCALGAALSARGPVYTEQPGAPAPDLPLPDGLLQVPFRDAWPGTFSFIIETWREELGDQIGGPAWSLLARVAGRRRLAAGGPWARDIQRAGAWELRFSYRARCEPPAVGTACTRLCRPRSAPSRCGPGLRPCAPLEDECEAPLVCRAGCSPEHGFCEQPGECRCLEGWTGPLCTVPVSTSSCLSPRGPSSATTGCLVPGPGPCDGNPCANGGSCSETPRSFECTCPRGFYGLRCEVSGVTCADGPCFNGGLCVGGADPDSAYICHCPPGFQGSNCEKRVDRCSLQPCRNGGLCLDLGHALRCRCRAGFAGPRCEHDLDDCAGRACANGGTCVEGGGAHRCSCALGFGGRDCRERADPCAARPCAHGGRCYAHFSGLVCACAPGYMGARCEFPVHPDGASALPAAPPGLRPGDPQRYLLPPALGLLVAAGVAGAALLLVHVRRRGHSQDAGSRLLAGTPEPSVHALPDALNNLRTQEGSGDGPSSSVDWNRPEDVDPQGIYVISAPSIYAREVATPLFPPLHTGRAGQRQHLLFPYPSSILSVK
Protocol: Cells of the DLL3-expressing small cell lung cancer cell lines H1184 (ATCC, Cat. No. CRL-5858), DLL3/H82, cynoDLL3/CHO-s, and RatDLL3/CHO-s were suspended at 1×10^6/mL in FACS buffer (1% BSA+pH 7.4 PBS), and the cell suspensions were added to a 96-well round-bottom plate (Corning, 3795) at 100 μL/well. The plate was centrifuged at 300 g for 5 min, and the supernatant was removed. Different concentrations of test antibodies were added at 100 μL/well. The plate was incubated in the dark in a refrigerator at 4° C. for 1 h. After 3 washes by centrifugation at 300 g, working concentrations of APC anti-human IgG Fc (BioLegend, 410712) or PE F(ab′)2-goat anti-human IgG (invitrogen, H10104) were added. The plate was incubated in the dark in a refrigerator at 4° C. for 40 min. After 3 washes by centrifugation at 300 g, the geometric mean fluorescence intensity was measured on an Invitrogen flow cytometer, and the EC50 values of the antibodies in binding to DLL3-expressing cells were calculated.

B1: Hu100 (antibody, human IgG1, kappa, V domains shown)
VH: EVQLVESGGGLVKPGGSLRLSCAASGFTFSDSGMHWIRQAPGKGLEWVSYISSGSSTIHYADTVKGRFTISRDNAKNSLYLQMNSLRAEDTAVYYCASPLYYYGRSYNAVAYWGQGTTVTVSS
VL: DIQMTQSPSSLSASVGDRVTITCHASQNINVWLSWYQQKPGKVPKLLIYKASDLHTGVPSRFSGSGSGTDFTLTISSLQPEDVATYYCQQGQSYPLTFGGGTKVEIKR
notes: also called hAb100L1H1
- binding result [1]: no binding
- EC50 [2]: 0.24 nM
- Emax [2]: 14300

From patent US20250057968A1, “ANTI-DLL3 ANTIBODY AND PHARMACEUTICAL USE THEREOF, AND ANTIBODY-DRUG CONJUGATE CONTAINING ANTI-DLL3 ANTIBODY” (Jiangsu Hengrui Pharmaceuticals Co., Ltd., priority 2021, published 2025)
